Measured values taken from patent US20230151089A1 (SYNGLE THERAPEUTICS B V, published 2023).

B1: antibody 26F1 (antibody, mouse IgG2a, kappa, V domains shown)
VH: DVQLQESGPGLVKPSQSLSLTCTVTGYSITSDYAWNWIRQFPGNKLEWLGYISYSGNTYYNPSLKSRISITRDTSKNQFFLHLNSVTTEDTATYYCAGNYVRWGQGTLVTVSA
VL: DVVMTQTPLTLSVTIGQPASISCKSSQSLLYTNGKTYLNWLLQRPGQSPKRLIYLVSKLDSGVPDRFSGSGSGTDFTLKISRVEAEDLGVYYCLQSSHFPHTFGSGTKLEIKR
notes: Mouse monoclonal; Isotype is said to be preferably IgG2a kappa; also called 26F1 antibody; IgG 26F1
B2: 26F1 scFv (single-chain variable fragment) (scFv)
scFv: DVQLQESGPGLVKPSQSLSLTCTVTGYSITSDYAWNWIRQFPGNKLEWLGYISYSGNTYYNPSLKSRISITRDTSKNQFFLHLNSVTTEDTATYYCAGNYVRWGQGTLVTVSAGGGGSGGGGSGGGGSDVVMTQTPLTLSVTIGQPASISCKSSQSLLYTNGKTYLNWLLQRPGQSPKRLIYLVSKLDSGVPDRFSGSGSGTDFTLKISRVEAEDLGVYYCLQSSHFPHTFGSGTKLEIK
B3: 26F1 TaFv (tandem single-chain variable fragment) (scFv)
scFv: DVQLQESGPGLVKPSQSLSLTCTVTGYSITSDYAWNWIRQFPGNKLEWLGYISYSGNTYYNPSLKSRISITRDTSKNQFFLHLNSVTTEDTATYYCAGNYVRWGQGTLVTVSAGGGGSGGGGSGGGGSDVVMTQTPLTLSVTIGQPASISCKSSQSLLYTNGKTYLNWLLQRPGQSPKRLIYLVSKLDSGVPDRFSGSGSGTDFTLKISRVEAEDLGVYYCLQSSHFPHTFGSGTKLEIKGGGGSDVQLQESGPGLVKPSQSLSLTCTVTGYSITSDYAWNWIRQFPGNKLEWLGYISYSGNTYYNPSLKSRISITRDTSKNQFFLHLNSVTTEDTATYYCAGNYVRWGQGTLVTVSAGGGGSGGGGSGGGGSDVVMTQTPLTLSVTIGQPASISCKSSQSLLYTNGKTYLNWLLQRPGQSPKRLIYLVSKLDSGVPDRFSGSGSGTDFTLKISRVEAEDLGVYYCLQSSHFPHTFGSGTKLEIK

Tests used:
[1] = molecular target: T1, alpha-synuclein oligomers (UniProt P37840 1-140); experiment: ELISA on alpha-Syn oligomer coat; half of the highest OD 450 nm, drawn table
[2] = molecular target: T1, alpha-synuclein oligomers; experiment: ELISA, ratio of binding affinities, reference alpha-Syn fibrils (FIG. 3)
Description: (§1) Binding affinities (EC50 values) towards different antigens were determined from ELISA experiments using antigen coated plates as follows. Absorbance data was corrected for background absorption obtained by incubating antigen coated plates without adding primary antibody but keeping all other parameters constant. The background corrected absorbance values were then plotted against the log value of the antibody concentration.
(§2) The curve was fitted using the Graphpad Prism software using the common binding function Abs450=Max/(1+10\hat{ }(([Log EC50−Log Ab]))) where “Abs450” is the background corrected experimental absorption, “Max” is the absorption upon complete binding saturation, “Log EC50” is the log of the EC50 value and “Log Ab” is the log of the antibody concentration.

[3] = molecular target: T1, alpha-synuclein oligomers; experiment: ELISA on alpha-Syn oligomer coat; row 'Titre (nM)' of the drawn table, concentration at DO (50%)
[4] = molecular target: T1, alpha-synuclein oligomers; experiment: ELISA on plates coated with ASO, ABO, AB fibrils, TAU oligo, TAU fibrils or no coat; antibody titrated, OD 450 nm
[5] = molecular target: T1, alpha-synuclein oligomers; experiment: ELISA, ratio of EC50 values, reference alpha-Syn fibrils
Description: as §1, §2

[6] = molecular target: T1, alpha-synuclein oligomers; experiment: ELISA, alpha-Syn oligomer coated plate, exp 3
Description: as §1, §2

[7] = molecular target: T1, alpha-synuclein oligomers; experiment: ELISA on antigen-coated plate, antibody titrated in tenfold steps, OD 450-630 nm
Description: as §1, §2

[8] = molecular target: T1, alpha-synuclein oligomers; experiment: ELISA, alpha-Syn oligomer coated plate, exp 1
Description: as §1, §2

[9] = molecular target: T1, alpha-synuclein oligomers; experiment: ELISA, alpha-Syn oligomer coated plate, exp 2
Description: as §1, §2

[10] = molecular target: T1, alpha-synuclein oligomers; experiment: ELISA, read from the graph, reference alpha-Syn monomer
[11] = molecular target: T1, alpha-synuclein oligomers; experiment: ELISA, alpha-Syn oligomer coated plate

| Binder | DO (50%) [1] | binding affinity ratio alpha-Syn oligomers:alpha-Syn fibrils [2] [fold] | EC50 [3] [nM] | EC50 (read off the curve) [4] [µg/mL] | fold preference over alpha-Syn fibrils [5] [fold] | EC50 [6] [nM] | EC50 (read off the curve) [7] [nM] | EC50 [8] [nM] | EC50 [9] [nM] | specificity ratio of alpha-Syn oligomer compared to alpha-Syn monomer [10] | EC50 [11] [nM] |
| --- | --- | --- | --- | --- | --- | --- | --- | --- | --- | --- | --- |
| B1 | 1.31 | ≥ 20 | 0.0966 | ~0.01 | 20 | 0.09 | ~0.2 | 0.039 | 0.027 | – | – |
| B2 | 0.744 | – | 3.66 | – | – | – | – | – | – | ≥ 100 | ~3.7 |
| B3 | 0.904 | – | 2.03 | – | – | – | – | – | – | ≥ 100 | ~2 |
